Test results from the supplement of paper PMC10567573.

B1: HDAC6 (parent)
chain: ACAQLATGAACRLVEAVLSGEVLN

Variants of: B1
Experiment: protein stability index of a GFP-peptide fusion (GPS, HEK-293T) (PSI 1-6); higher = more stable
Conditions: c terminus: a fixed tail appended
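Note: lentivirally expressed fusions sorted by FACS into six bins by GFP to DsRed ratio, PSI derived from sequencing read proportions per bin multiplied by bin number.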

Protein stability index: each site, then its substitutions
V14: G 2.17, Q 2.74, K 1.97, M 3.28, S 2.15, N 3.78, H 2.56, C 3.54, D 2.53, A 2.05, T 1.75
Q4: I 1.55, A 2.68, Y 4.38, P 1.04, K 2.69, E 2.92
G8: C 2.74, S 1.94, D 2.67, M 1.28, T 3.69
A10: Q 1.71, E 1.82, D 2.22, Y 1.49, I 2.01, P 2, G 1.43, R 1.7, C 2.16, K 2.38
C11: R 1.78, E 1.04, K 2.29, P 2.27, A 2.9
S19: P 2.98, A 4.12
A3: N 1.68, S 4.04, F 3.94, D 2.88, W 2.17
V17: H 2.75, S 1.93, Q 1.85, P 2.5, D 3.56, T 2.04
A1: K 1.92, C 1.16, E 3.75, P 1.53, S 3.19, T 4.34, G 1
E21: Y 3.01, I 3.07, D 2.6, C 2.87, K 1.09, N 3.96, W 2.67
C2: T 3.63, P 1.82, N 1.21, K 1.99, S 1.08, L 3.12, D 2.98, E 2, Q 2.97
A6: N 1.48, C 2.49, T 1.39, D 2.11, G 2.25, K 1.19, I 3.57, Q 2.74, H 1, E 2.35
G20: D 2.25, L 3.07, F 3.97, P 2.07, E 1.43, R 2.86, S 2.89, I 2.15
N24: D 1.87, K 2.61, F 1.85
R12: G 1.26, Y 3.46, N 2.52, M 3.3, S 1.65, T 2.92, D 1.48, A 2.3, Q 1.97, P 2.66
V22: Y 3.8, L 2.09, K 1.01, S 1.36, M 3.31, H 4.01, G 2.44, P 2.42, F 2.71, A 3.65, E 1.84, D 2.37
A9: K 2.23, Y 1.68, P 2.4, N 1.09, E 3.49, W 2.99, G 1.69, D 2.61, R 3, I 3.52
T7: S 2.78, M 3.57, N 1.54, D 1.79
L5: I 1.51, G 2.42, D 2.61, Q 2.67, P 2.2, M 2.68, N 1.81, T 1.37, E 2.48, V 1.16, H 1.42
A16: P 2.28, Y 3.51, R 2.18, D 2.78, L 2.77
L13: S 1.68, H 3.21, P 2.53, D 3.58, N 2.06, K 3.91, R 2.5, T 1.93, M 2.93
L23: N 1.54, D 2.49, Q 1.05, E 2.83, P 1.96, W 2.42, V 1.26, H 3.51, K 1.7, M 4.41, A 2.22, Y 3.97
